{
  "source": "patent US20250000973A1",
  "about": "(Novartis, published 2025)",
  "molecular_target": "T1, BCMA (TNFRSF17), human plasma membrane protein array (human, UniProt Q02223 1-184)",
  "T1 construct": "also called B-cell maturation antigen",
  "T1 sequence (looked up)": "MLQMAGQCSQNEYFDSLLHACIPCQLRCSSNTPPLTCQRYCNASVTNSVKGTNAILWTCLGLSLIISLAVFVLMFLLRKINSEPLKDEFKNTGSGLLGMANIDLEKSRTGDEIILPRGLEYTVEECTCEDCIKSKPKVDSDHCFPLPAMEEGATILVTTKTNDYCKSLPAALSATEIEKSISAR",
  "assay": "commercial human plasma membrane protein array",
  "data": [
    {"binder": "anti-human BCMA single chain antibody variable fragment (scFv) (PI61) (scFv, also called PI61 scFv) scFv: QVQLQESGGGVVQPGRSLRLSCAASGFTFSSYGMHWVRQAPGKGLEWVAVISYDGSNKYYADSVKGRFTISRDNSKNTLYLQMNSLRAEDTAVYYCGGSGYALHDDYYGLDVWGQGTLVTVSSGGGGSGGGGSGGGGSQSALTQPASVSGSPGQSITISCTGTSSDVGGYNYVSWYQQHPGKAPKLMIYDVSNRPSGVSNRFSGSKSGNTASLTISGLQAEDEADYYCSSYTSSSTLYVFGSGTKVTVL", "values": [
      {"measurement": "binding result", "value": "binds"}
    ]}
  ]
}
